The values below come from publication PMC6179184, “Interaction of the Warsaw breakage syndrome DNA helicase DDX11 with the replication fork-protection factor Timeless promotes sister chromatid cohesion” (PLoS Genetics, 2018).

First the molecules themselves.
B1: DDX11-3xFlag wild type [human] / endogenous Timeless (HEK 293T) [human (endogenous in HEK 293T)] (parent complex)
chain 1: MANETQKVGAIHFPFPFTPYSIQEDFMAELYRVLEAGKIGIFESPTGTGKSLSLICGALSWLRDFEQKKREEEARLLETGTGPLHDEKDESLCLSSSCEGAAGTPRPAGEPAWVTQFVQKKEERDLVDRLKAEQARRKQREERLQQLQHRVQLKYAAKRLRQEEEERENLLRLSREMLETGPEAERLEQLESGEEELVLAEYESDEEKKVASRVDEDEDDLEEEHITKIYYCSRTHSQLAQFVHEVKKSPFGKDVRLVSLGSRQNLCVNEDVKSLGSVQLINDRCVDMQRSRHEKKKGAEEEKPKRRRQEKQAACPFYNHEQMGLLRDEALAEVKDMEQLLALGKEARACPYYGSRLAIPAAQLVVLPYQMLLHAATRQAAGIRLQDQVVIIDEAHNLIDTITGMHSVEVSGSQLCQAHSQLLQYVERYGKRLKAKNLMYLKQILYLLEKFVAVLGGNIKQNPNTQSLSQTGTELKTINDFLFQSQIDNINLFKVQRYCEKSMISRKLFGFTERYGAVFSSREQPKLAGFQQFLQSLQPRTTEALAAPADESQASTLRPASPLMHIQGFLAALTTANQDGRVILSRQGSLSQSTLKFLLLNPAVHFAQVVKECRAVVIAGGTMQPVSDFRQQLLACAGVEAERVVEFSCGHVIPPDNILPLVICSGISNQPLEFTFQKRELPQMMDEVGRILCNLCGVVPGGVVCFFPSYEYLRQVHAHWEKGGLLGRLAARKKIFQEPKSAHQVEQVLLAYSRCIQACGQERGQVTGALLLSVVGGKMSEGINFSDNLGRCVVMVGMPFPNIRSAELQEKMAYLDQTLPRAPGQAPPGKALVENLCMKAVNQSIGRAIRHQKDFASVVLLDQRYARPPVLAKLPAWIRARVEVKATFGPAIAAVQKFHREKSASS
chain 2: MDLHMMNCELLATCSALGYLEGDTYHKEPDCLESVKDLIRYLRHEDETRDVRQQLGAAQILQSDLLPILTQHHQDKPLFDAVIRLMVNLTQPALLCFGNLPKEPSFRHHFLQVLTYLQAYKEAFASEKAFGVLSETLYELLQLGWEERQEEDNLLIERILLLVRNILHVPADLDQEKKIDDDASAHDQLLWAIHLSGLDDLLLFLASSSAEEQWSLHVLEIVSLMFRDQNPEQLAGVGQGRLAQERSADFAELEVLRQREMAEKKTRALQRGNRHSRFGGSYIVQGLKSIGERDLIFHKGLHNLRNYSSDLGKQPKKVPKRRQAARELSIQRRSALNVRLFLRDFCSEFLENCYNRLMGSVKDHLLREKAQQHDETYYMWALAFFMAFNRAASFRPGLVSETLSVRTFHFIEQNLTNYYEMMLTDRKEAASWARRMHLALKAYQELLATVNEMDISPDEAVRESSRIIKNNIFYVMEYRELFLALFRKFDERCQPRSFLRDLVETTHLFLKMLERFCRSRGNLVVQNKQKKRRKKKKKVLDQAIVSGNVPSSPEEVEAVWPALAEQLQCCAQNSELSMDSVVPFDAASEVPVEEQRAEAMVRIQDCLLAGQAPQALTLLRSAREVWPEGDVFGSQDISPEEEIQLLKQILSAPLPRQQGPEERGAEEEEEEEEEEEEELQVVQVSEKEFNFLDYLKRFACSTVVRAYVLLLRSYQQNSAHTNHCIVKMLHRLAHDLKMEALLFQLSVFCLFNRLLSDPAAGAYKELVTFAKYILGKFFALAAVNQKAFVELLFWKNTAVVREMTEGYGSLDDRSSSRRAPTWSPEEEAHLRELYLANKDVEGQDVVEAILAHLNTVPRTRKQIIHHLVQMGLADSVKDFQRKGTHIVLWTGDQELELQRLFEEFRDSDDVLGHIMKNITAKRSRARIVDKLLALGLVAERRELYKKRQKKLASSILPNGAESLKDFCQEDLEEEENLPEEDSEEEEEGGSEAEQVQGSLVLSNENLGQSLHQEGFSIPLLWLQNCLIRAADDREEDGCSQAVPLVPLTEENEEAMENEQFQQLLRKLGVRPPASGQETFWRIPAKLSPTQLRRAAASLSQPEEEQKLQPELQPKVPGEQGSDEEHCKEHRAQALRALLLAHKKKAGLASPEEEDAVGKEPLKAAPKKRQLLDSDEEQEEDEGRNRAPELGAPGIQKKKRYQIEDDEDD

The variants in this assay derive from B1. The assay is described as follows: co-immuno-precipitation (anti-Flag M2 agarose beads) with quantified Western blot; HEK 293T whole cell extracts, 48 hr post-transfection; three independent experiments; parent: 1; read off a plot. On the technique in general: In western blotting, separated proteins are transferred to a membrane and probed.
Regarding chain 1 E201K, chain 1 Y202A, chain 1 E203K, the ratio to parent was roughly 0.56.

Consider chain 1 E201K, chain 1 Y202A, for which the ratio to parent is roughly 0.48.
